Publication PMC12362618, “Development of the First Small-Molecule Inhibitor Targeting Oncostatin M for Treatment of Breast Cancer” (Journal of Medicinal Chemistry, 2025)

Target: T1, glycoprotein 130 (UniProt P40189 23-619)
T1 construct: gp130 (glycoprotein 130), bought recombinant protein; also called gp130; source: bought: R&D Systems
T1 sequence (looked up): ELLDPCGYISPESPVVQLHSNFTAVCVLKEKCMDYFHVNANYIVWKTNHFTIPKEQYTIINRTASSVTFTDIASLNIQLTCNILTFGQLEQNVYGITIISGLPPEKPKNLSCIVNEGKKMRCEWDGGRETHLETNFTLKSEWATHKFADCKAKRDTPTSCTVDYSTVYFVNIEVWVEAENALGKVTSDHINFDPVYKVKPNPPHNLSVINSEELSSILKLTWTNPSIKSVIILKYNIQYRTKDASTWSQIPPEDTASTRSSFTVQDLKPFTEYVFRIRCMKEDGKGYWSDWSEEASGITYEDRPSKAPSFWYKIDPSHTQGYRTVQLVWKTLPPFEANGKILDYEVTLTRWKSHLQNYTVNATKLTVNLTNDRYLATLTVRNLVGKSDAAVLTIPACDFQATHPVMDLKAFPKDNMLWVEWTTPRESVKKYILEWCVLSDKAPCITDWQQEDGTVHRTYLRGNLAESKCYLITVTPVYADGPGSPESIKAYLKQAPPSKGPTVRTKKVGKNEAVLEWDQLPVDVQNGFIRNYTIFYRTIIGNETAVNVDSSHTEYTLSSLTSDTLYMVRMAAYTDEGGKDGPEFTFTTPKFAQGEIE
Assay: SPR; kinetics; OSM immobilised by EDC/NHS coupling on a carboxyl mixed self-assembled monolayer gold chip (Reichert SR7000), increasing concentrations of gp130 injected; 25 °C; PBS with 0.005% Tween-20; 30 μL/min
Details: both partners purified

Kd: 20.5 nM
B1: Oncostatin M (ligand, human, UniProt P13725 26-221, looked up)
chain: AAIGSCSKEYRVLLGQLQKQTDLMQDTSRLLDPYIRIQGLDVPKLREHCRERPGAFPSEETLRGLGRRGFLQTLNATLGCVLHRLADLEQRLPKAQDLERSGLNIEDLEKLQMARPNILGLRNNIYCMAQLLDNSDTAEPTKAGRGASQPPTPTPASDAFQRKLEGCRFLHGYHRFMHSVGRVFSKWGESPNRSRR
notes: Oncostatin M, human; about 24 kDa; immobilised for SPR; The construct is only 'as previously described'; also called OSM; source: recombinant OSM, 'as previously described'
